According to patent publication US10590193 (dated 2020):

T1: human VEGF165 (human, UniProt P15692)
T1 chain: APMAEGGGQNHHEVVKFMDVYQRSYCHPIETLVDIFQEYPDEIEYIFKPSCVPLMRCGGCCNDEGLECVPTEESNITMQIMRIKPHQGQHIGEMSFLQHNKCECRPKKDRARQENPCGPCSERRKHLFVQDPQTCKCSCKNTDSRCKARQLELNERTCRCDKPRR


Legend:
human VEGF165 [1] = target: T1, human VEGF165; assay: SPR, pH 5
human VEGF165 [2] = target: T1, human VEGF165; assay: SPR, pH 7.4
human VEGF165 [3] = target: T1, human VEGF165; assay: SPR, pH 5

Binder | Kd (human VEGF165 [1]) [nM] | Kd (human VEGF165 [2]) [nM] | Kd (human VEGF165 [3]) [nM]
435-max (antibody, V domains shown) VH: EVQLVESGGGLVQPGGSLRLSCKVSGFSLNTNYWMCWVRQAPGKGLEWVGCMYTGSYNRAYYASWAKGRFTSSKDTSKNTVYLQMNSLRAEDTAVYYCAKGSNWYSDLWGQGTLVTVSS VL: EIVMTQSPSTLSASVGDRVIIKCQASQSIGSSLAWYQQKPGKAPKLLIYTAANLASGVPSRFSGSGSGAEFTLTISSLQPDDFATYYCQNFATSDTVTFGQGTKLTVLG | 4.53 | 0.0922 | –
534-min C-His (antibody, V domains shown) VH: EVQLVESGGGLVQPGGSLRLSCAASGFSLSYYYMSWVRQAPGKGLEWVSIIGPGDYTDYASWAKGRFTISRDNSKNTLYLQMNSLRAEDTAVYYCAKGDDNSGWGEDIWGQGTLVTVSS VL: EIVMTQSPSTLSASVGDRVIITCQASQSINIWLSWYQQKPGKAPKLLIYKESTLASGVPSRFSGSGSGAEFTLTISSLQPDDFATYYCQNNYDSGNNGFPFGQGTKLTVLG | 34.1 | – | –
534-max (antibody, V domains shown) VH: EVQLVESGGGLVQPGGSLRLSCTASGFSLSYYYMSWVRQAPGKGLEWVGIIGPGDYTDYASWAKGRFTISKDTSKNTVYLQMNSLRAEDTAVYYCARGDDNSGWGEDIWGQGTLVTVSS VL: EIVMTQSPSTLSASVGDRVIITCQASQSINIWLSWYQQKPGKAPKLLIYKESTLASGVPSRFSGSGSGTEFTLTISSLQPDDFATYYCQNNYDSGNNGFPFGQGTKLTVLG | 9.21 | 2.47 | –
375-max (antibody, V domains shown) VH: EVQLVESGGGLVQPGGSLRLSCKASGFSFTTTDYMCWVRQAPGKGLEWVGCILAGDGSTYYANWAKGRFTGSKDTSKNTVYLQMNSLRAEDTAVYYCARSDPASSWSFALWGQGTLVTVSS VL: EIVMTQSPSTLSASVGDRVIITCQASENINIWLSWYQQKPGKAPKLLIYQASKLASGVPSRFSGSGSGTQFTLTISSLQPDDFATYYCQNNYSYNRYGAPFGQGTKLTVLG | 2.68 | 4.74 | –
578-max FW1.4_DHP (960) (antibody, V domains shown) VH: EVQLVESGGGSVQPGGSLRLSCTASGFSLTDYYYMTWVRQAPGKGLEWVGFIDPDDDPYYATWAKGRFTISRDTSKNTVYLQMNSLRAEDTATYYCAGGDHNSGWGLDIWGQGTTVTVSS VL: EIVMTQSPSTLSASVGDRVIITCQASEIIHSWLAWYQQKPGKAPKLLIYLASTLASGVPSRFSGSGSGTQFTLTISSLQPDDFATYYCQNVYLASTNGANFGQGTKLTVLG | – | – | 0.266

Now from value to binder:

Kd (human VEGF165 [1]) [nM] | Kd (human VEGF165 [2]) [nM] | Kd (human VEGF165 [3]) [nM] | Binder
– | – | 6.55 | 578-max-min (902) (antibody, V domains shown) VH: EVQLVESGGGLVQPGGSLRLSCAASGFSLTDYYYMTWVRQAPGKGLEWVSFIDPDDDPYYATWAKGRFTISRDNSKNTLYLQMNSLRAEDTAVYYCAKGDHNSGWGLDIWGQGTLVTVSS VL: EIVMTQSPSTLSASVGDRVIITCQASEIIHSWLAWYQQKPGKAPKLLIYLASTLASGVPSRFSGSGSGTQFTLTISSLQPDDFATYYCQNVYLASTNGANFGQGTKLTVLG
– | – | 2.13 | 578min_max V89L (980) (antibody, V domains shown) VH: EVQLVESGGGLVQPGGSLRLSCTASGFSLTDYYYMTWVRQAPGKGLEWVGFIDPDDDPYYATWAKGRFTISRDTSKNTLYLQMNSLRAEDTAVYYCAGGDHNSGWGLDIWGQGTLVTVSS VL: EIVMTQSPSTLSASVGDRVIITCQASEIIHSWLAWYQQKPGKAPKLLIYLASTLASGVPSRFSGSGSGAEFTLTISSLQPDDFATYYCQNVYLASTNGANFGQGTKLTVLG
– | – | 0.615 | 578min_max T84N_V89A (1009) (antibody, V domains shown) VH: EVQLVESGGGLVQPGGSLRLSCTASGFSLTDYYYMTWVRQAPGKGLEWVGFIDPDDDPYYATWAKGRFTISRDNSKNTAYLQMNSLRAEDTAVYYCAGGDHNSGWGLDIWGQGTLVTVSS VL: EIVMTQSPSTLSASVGDRVIITCQASEIIHSWLAWYQQKPGKAPKLLIYLASTLASGVPSRFSGSGSGAEFTLTISSLQPDDFATYYCQNVYLASTNGANFGQGTKLTVLG
